These results are taken from patent US20070136889A1 (CROPDESIGN N V, published 2007).

The target in assay [1] is T1, GAL4 DNA-binding domain-CDC2aAt fusion protein encoded by pGBTCDC2A (Arabidopsis thaliana, UniProt P04386 1-147; P24100 1-294).
T1 construct: Two-hybrid bait
The assay is described as follows: yeast two-hybrid, his3 reporter, control with GAL4 activation domain only.

Assay [2] concerns the target T2, CDC2aAt protein (Arabidopsis thaliana, UniProt P24100 1-294).
T2 construct: Endogenous protein in extracts of partially synchronized Arabidopsis cell suspensions
The assay is described as follows: co-immunoprecipitation with the CKS1At antibody from extracts of G1/S cells, blot probed with the CDC2aAt antibody. The protocol:
Arabidopsis thaliana cell suspensions were partially synchronized by the addition of aphidicolin to freshly diluted cell suspension cells. After 24 hours the drug was washed away and cells were cultivated in new medium. Samples were collected at several time points and partly used for nuclei preparation, partly for protein extraction. […] The CKS1At containing complexes were precipitated with the use of a CKS1At specific antibody (see example 9 of this application). These complexes were resolved on a SDS PAGE gel and immunoblotted. The presence of CDC2aAt as a component of the immuno-precipitated complexes was verified by probing this blot with a CDC2aAt specific antibody. This antibody detected a specific band of the correct molecular size in the extracts of the G1/S cells.

The target in assay [3] is T3, GAL4 DNA-binding domain-CDC2bAt fusion protein encoded by pGBTCDC2B (Arabidopsis thaliana, UniProt P04386 1-147; P25859 1-309).
T3 construct: Two-hybrid bait
In words: yeast two-hybrid, his3 reporter. The protocol:
The recently published structure of the human CDK2 protein in complex with the human CKS1At homologue CKSHs1 helped to identify the amino-acids in the CKS/SUC1 proteins important for interaction with CDKs. Based upon this information the E61 residue of CKS1At was mutated into Q61 by PCR. The consequences of this mutation upon the binding affinity for CDC2aAt and CDC2bAt were tested with the use of a two-hybrid system utilizing the his3 gene as reporter gene. The coding region of both the wild type CKS1At and the mutated CKS1At.Q61 gene was cloned in frame with the GAL4 activation domain in the pGAD424 vector, resulting in the pGADCKS and pGADCKS.Q61 respectively. These vectors were used to cotransform the HF7c yeast cells with pGBTCDC2A or pGBTCDC2B. The pGBTCDC2A and pGBTCDC2B vectors encode for a fusion protein between the GAL4 DNA-binding domain and CDC2aAt or CDC2bAt respectively. The transformants were plated on selective medium in the absence of histidine to test the interactions between CKS1At and CKS1At.Q61 with CDC2aAt and CDC2bAt. Transformants were also streaked on medium containing 10, 20, 40, 80 or 160 mM 3-amino-1,2,4-triazole (3-AT). 3-AT acts as a competitive inhibitor of the his3 gene product.

Assay [4] deals with T4, GAL4 DNA-binding domain only (plasmid pGBT9) (UniProt P04386 1-147).
T4 construct: Negative control of the two-hybrid assay; also called empty pGBT9 vector
In words: yeast two-hybrid, his3 reporter, control with empty pGBT9. The protocol:
The need for this C-terminal domain for the interaction with CDC2At was assayed using the two-hybrid system. A gene encoding a truncated CKS1At protein was created by mutating the Tyr73 codon to a stop codon, thereby deleting the last 15 amino acids. Subsequently, this mutated gene was cloned in frame with the GAL4 activation domain, resulting in the pGADCDSQ plasmid. This vector was introduced into the HF7c yeast reporter strain, together with pGBTCDC2A or the empty pGBT9 vector. […] Therefore, this part of the CKS1At protein might be involved in the interaction with other proteins or may improve the stability of the CDK-CKS1At interaction.

T2 sequence (P24100 whole entry): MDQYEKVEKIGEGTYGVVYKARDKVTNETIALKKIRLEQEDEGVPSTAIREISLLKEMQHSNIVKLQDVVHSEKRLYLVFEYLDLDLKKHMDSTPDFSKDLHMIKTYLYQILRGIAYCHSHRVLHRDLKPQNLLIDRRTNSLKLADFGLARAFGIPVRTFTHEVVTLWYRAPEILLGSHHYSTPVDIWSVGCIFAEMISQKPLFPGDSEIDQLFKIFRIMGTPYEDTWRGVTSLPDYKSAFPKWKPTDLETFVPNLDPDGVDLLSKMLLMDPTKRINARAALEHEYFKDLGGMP

B1: GAL4 activation domain only (vector pGAD424) (other, UniProt P04386 768-881, looked up)
chain: ANFNQSGNIADSSLSFTFTNSSNGPNLITTQTNSQALSQPIASSNVHDNFMNNEITASKIDDGNNSKPLSPGWTDQTAYNAFGITTGMFNTTTMDDVYNYLFDDEDTPPNPKKE
notes: Negative control of the two-hybrid assay
On to B1, for which the binding result in assay [1] is “no binding”.

B2: CKS1At protein (CDK-associating subunit from Arabidopsis thaliana) (other)
chain: MGQIQYSEKYFDDTFEYRHVVLPPEVAKLLPKNRLLSENEWRAIGVQQSRGWVHYAVHRPEPHIMLFRRPLNYQQQQENQAQNMLVK
notes: also called wild type CKS1At
In the case of B2, the binding result in assay [2] is “binds”.

B3: GAL4 activation domain-CKS1At.Q61 fusion protein encoded by pGADCKS.Q61 (other, not shown: large carriers; small tags and cut ends)
chain: MGQIQYSEKYFDDTFEYRHVVLPPEVAKLLPKNRLLSENEWRAIGVQQSRGWVHYAVHRPQPHIMLFRRPLNYQQQQENQAQNMLVK
notes: Two-hybrid prey with the E61 residue of CKS1At mutated into Q61; also called CKS1At mutant E61Q
Take B3: the binding result in assay [3] was “no binding”.

B4: GAL4 activation domain fused to truncated CKS1At lacking the last 15 amino acids, encoded by pGADCKSQ (other, not shown: large carriers)
chain: MGQIQYSEKYFDDTFEYRHVVLPPEVAKLLPKNRLLSENEWRAIGVQQSRGWVHYAVHRPEPHIMLFRRPLN
notes: Tyr73 codon mutated to a stop codon, deleting the last 15 amino acids; also called pGADCDSQ; truncated CKS1At protein
With B4, the binding result in assay [4] is “no binding”.
